Laboratory results reported in IntAct's records for PubMed 29892012.

B1: E3 ubiquitin-protein ligase LNX (Homo sapiens), Q8TBB1 (parent)
chain: MNQPESANDPEPLCAVCGQAHSLEENHFYSYPEEVDDDLICHICLQALLDPLDTPCGHTYCTLCLTNFLVEKDFCPMDRKPLVLQHCKKSSILVNKLLNKLLVTCPFREHCTQVLQRCDLEHHFQTSCKGASHYGLTKDRKRRSQDGCPDGCASLTATAPSPEVSAAATISLMTDEPGLDNPAYVSSAEDGQPAISPVDSGRSNRTRARPFERSTIRSRSFKKINRALSVLRRTKSGSAVANHADQGRENSENTTAPEVFPRLYHLIPDGEITSIKINRVDPSESLSIRLVGGSETPLVHIIIQHIYRDGVIARDGRLLPGDIILKVNGMDISNVPHNYAVRLLRQPCQVLWLTVMREQKFRSRNNGQAPDAYRPRDDSFHVILNKSSPEEQLGIKLVRKVDEPGVFIFNVLDGGVAYRHGQLEENDRVLAINGHDLRYGSPESAAHLIQASERRVHLVVSRQVRQRSPDIFQEAGWNSNGSWSPGPGERSNTPKPLHPTITCHEKVVNIQKDPGESLGMTVAGGASHREWDLPIYVISVEPGGVISRDGRIKTGDILLNVDGVELTEVSRSEAVALLKRTSSSIVLKALEVKEYEPQEDCSSPAALDSNHNMAPPSDWSPSWVMWLELPRCLYNCKDIVLRRNTAGSLGFCIVGGYEEYNGNKPFFIKSIVEGTPAYNDGRIRCGDILLAVNGRSTSGMIHACLARLLKELKGRITLTIVSWPGTFL
partner: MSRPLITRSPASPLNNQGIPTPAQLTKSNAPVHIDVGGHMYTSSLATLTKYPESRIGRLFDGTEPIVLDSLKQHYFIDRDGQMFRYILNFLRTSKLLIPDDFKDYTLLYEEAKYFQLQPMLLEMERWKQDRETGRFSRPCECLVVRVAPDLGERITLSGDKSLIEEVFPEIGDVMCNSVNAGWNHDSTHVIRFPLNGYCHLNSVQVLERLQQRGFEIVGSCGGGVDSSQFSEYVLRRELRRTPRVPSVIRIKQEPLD
B2: Small glutamine-rich tetratricopeptide repeat-containing protein beta (Homo sapiens), Q96EQ0 (parent)
chain: MSSIKHLVYAVIRFLREQSQMDTYTSDEQESLEVAIQCLETVFKISPEDTHLAVSQPLTEMFTSSFCKNDVLPLSNSVPEDVGKADQLKDEGNNHMKEENYAAAVDCYTQAIELDPNNAVYYCNRAAAQSKLGHYTDAIKDCEKAIAIDSKYSKAYGRMGLALTALNKFEEAVTSYQKALDLDPENDSYKSNLKIAEQKLREVSSPTGTGLSFDMASLINNPAFISMAASLMQNPQVQQLMSGMMTNAIGGPAAGVGGLTDLSSLIQAGQQFAQQIQQQNPELIEQLRNHIRSRSFSSSAEEHS
B3: Coiled-coil alpha-helical rod protein 1 (Homo sapiens), Q8TD31 (parent)
chain: MFPPSGSTGLIPPSHFQARPLSTLPRMAPTWLSDIPLVQPPGHQDVSERRLDTQRPQVTMWERDVSSDRQEPGRRGRSWGLEGSQALSQQAEVIVRQLQELRRLEEEVRLLRETSLQQKMRLEAQAMELEALARAEKAGRAEAEGLRAALAGAEVVRKNLEEGSQRELEEVQRLHQEQLSSLTQAHEEALSSLTSKAEGLEKSLSSLETRRAGEAKELAEAQREAELLRKQLSKTQEDLEAQVTLVENLRKYVGEQVPSEVHSQTWELERQKLLETMQHLQEDRDSLHATAELLQVRVQSLTHILALQEEELTRKVQPSDSLEPEFTRKCQSLLNRWREKVFALMVQLKAQELEHSDSVKQLKGQVASLQEKVTSQSQEQAILQRSLQDKAAEVEVERMGAKGLQLELSRAQEARRRWQQQTASAEEQLRLVVNAVSSSQIWLETTMAKVEGAAAQLPSLNNRLSYAVRKVHTIRGLIARKLALAQLRQESCPLPPPVTDVSLELQQLREERNRLDAELQLSARLIQQEVGRAREQGEAERQQLSKVAQQLEQELQQTQESLASLGLQLEVARQGQQESTEEAASLRQELTQQQELYGQALQEKVAEVETRLREQLSDTERRLNEARREHAKAVVSLRQIQRRAAQEKERSQELRRLQEEARKEEGQRLARRLQELERDKNLMLATLQQEGLLSRYKQQRLLTVLPSLLDKKKSVVSSPRPPECSASAPVAAAVPTRESIKGSLSVLLDDLQDLSEAISKEEAVCQGDNLDRCSSSNPQMSS
partner: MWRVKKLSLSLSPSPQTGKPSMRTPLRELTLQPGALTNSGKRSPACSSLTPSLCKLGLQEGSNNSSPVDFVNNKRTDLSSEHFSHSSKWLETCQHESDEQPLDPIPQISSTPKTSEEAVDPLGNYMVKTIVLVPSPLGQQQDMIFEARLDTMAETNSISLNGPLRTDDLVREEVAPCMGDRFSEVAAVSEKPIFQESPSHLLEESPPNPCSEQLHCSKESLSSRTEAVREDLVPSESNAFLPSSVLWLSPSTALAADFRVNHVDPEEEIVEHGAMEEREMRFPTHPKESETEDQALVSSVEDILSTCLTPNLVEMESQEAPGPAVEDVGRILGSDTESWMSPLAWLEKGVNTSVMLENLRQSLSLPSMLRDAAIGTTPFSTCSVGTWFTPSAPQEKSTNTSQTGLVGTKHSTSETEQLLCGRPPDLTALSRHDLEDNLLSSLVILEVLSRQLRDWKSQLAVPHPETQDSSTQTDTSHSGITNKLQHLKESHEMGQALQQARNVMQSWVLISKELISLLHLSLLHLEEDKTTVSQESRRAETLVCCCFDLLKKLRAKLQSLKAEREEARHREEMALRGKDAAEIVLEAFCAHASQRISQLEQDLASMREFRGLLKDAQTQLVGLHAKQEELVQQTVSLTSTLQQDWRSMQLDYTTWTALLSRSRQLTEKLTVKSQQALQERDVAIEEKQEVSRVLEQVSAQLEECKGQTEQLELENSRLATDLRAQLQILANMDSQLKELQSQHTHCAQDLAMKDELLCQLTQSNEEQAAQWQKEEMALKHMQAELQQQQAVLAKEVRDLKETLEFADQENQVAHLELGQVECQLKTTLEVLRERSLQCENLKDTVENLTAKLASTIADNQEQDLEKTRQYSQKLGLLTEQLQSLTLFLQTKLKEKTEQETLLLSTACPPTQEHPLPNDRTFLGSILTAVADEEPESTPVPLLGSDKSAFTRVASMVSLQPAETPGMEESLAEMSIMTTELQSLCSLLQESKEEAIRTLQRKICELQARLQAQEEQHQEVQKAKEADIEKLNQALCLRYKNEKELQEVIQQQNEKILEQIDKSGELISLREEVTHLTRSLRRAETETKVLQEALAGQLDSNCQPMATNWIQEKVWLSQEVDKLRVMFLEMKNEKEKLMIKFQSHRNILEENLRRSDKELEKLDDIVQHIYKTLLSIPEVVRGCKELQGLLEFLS

Variants of: B1
Conditions: with kctd1_human KCTD1, Q719H9

Variant	effect of a mutation on the interaction
E295K	disrupting interaction strength

Variants of: B2
Conditions: with fbln4_human EFEMP2, O95967
Chain of fbln4_human EFEMP2, O95967 (O95967 whole entry): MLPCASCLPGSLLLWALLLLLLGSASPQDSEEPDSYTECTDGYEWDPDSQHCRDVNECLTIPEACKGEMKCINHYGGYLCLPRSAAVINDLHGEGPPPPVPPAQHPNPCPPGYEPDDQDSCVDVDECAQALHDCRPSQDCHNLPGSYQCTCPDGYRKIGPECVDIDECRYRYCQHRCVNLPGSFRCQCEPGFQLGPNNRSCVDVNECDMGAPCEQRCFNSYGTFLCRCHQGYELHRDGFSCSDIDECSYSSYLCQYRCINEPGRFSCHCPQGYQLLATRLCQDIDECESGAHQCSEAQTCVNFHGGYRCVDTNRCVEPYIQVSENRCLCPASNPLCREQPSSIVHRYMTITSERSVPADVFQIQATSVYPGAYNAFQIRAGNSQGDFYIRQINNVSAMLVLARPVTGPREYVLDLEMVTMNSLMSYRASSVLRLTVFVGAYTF

Variant	effect of a mutation on the interaction
R292W	with no effect

Variants of: B2
Conditions: with il6rb_human IL6ST

Variant	effect of a mutation on the interaction
R292W	disrupting interaction strength

Variants of: B3
Conditions: with spag5_human SPAG5, Q96R06

Variant	effect of a mutation on the interaction
W337R	disrupting interaction strength
